Source: the supplement of paper PMC11908140

B1: library; numbered along this chain (parent)
chain: MRKPRAAVGSGHRKQAASQEGRQKHAKNNSQAKPSACDGLARQPEEVVLQASVSSYHLFRDVAEVTAFRGSLLSWYDQEKRDLPWRRRAEDEMDLDRRAYAVWVSEVMLQQTQVATVINYYTGWMQKWPTLQDLASASLEEVNQLWAGLGYYSRGRRLQEGARKVVEELGGHMPRTAETLQQLLPGVGRYTAGAIASIAFGQATGVVDGNVARVLCRVRAIGADPSSTLVSQQLWGLAQQLVDPARPGDFNQAAMELGATVCTPQRPLCSQCPVESLCRARQRVEQEQLLASGSLSGSPDVEECAPNTGQCHLCLPPSEPWDQTLGVVNFPRKASRKPPREESSATCVLEQPGALGAQILLVQRPNSGLLAGLWEFPSVTWEPSEQLQRKALLQELQRWAGPLPATHLRHLGEVVHTFSHIKLTYQVYGLALEGQTPVTTVPPGARWLTQEEFHTAAVSTAMKKVFRVYQGQQPGTCMGSKRSQVSSPCSRKKPRMGQQVLDNFFRSHISTDAHSLNSAAQ

Variants of: B1
Experiment: 8OG:A repair function score (normalized; synonymous = 0, nonsense = -1) (normalized log-likelihood score); higher = more repair activity (WT-like)
Details: with 8OG:A DNA repair reporter (GFP) in HEK-293 MUTYH KO cells
Method: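 Saturation mutagenesis (NNN codon scan) of the MUTYH cDNA (521-aa nuclear isoform NM_001048174.1 / NP_001041639), stably expressed under doxycycline induction in HEK-293 MUTYH knockout cells. Cells were co-transfected with an 8OG:A-bearing GFP repair reporter plus mCherry and sorted 72 h later into GFP+ and GFP− bins, three replicates per tile. The Rosace log2 enrichment (GFP+ vs GFP−) was converted per tile to a normalized function score with synonymous variants centered at 0 and nonsense variants (codons 1-471) at -1; low-abundance variants were removed.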

8OG:A repair function score, by site and new letter:
E92: W -0.152, M -0.0276, K -0.0744, H -0.0814, P -0.0511, I -0.0645, Y -0.0538, N -0.0998, C -0.0208, Q -0.0495, L -0.011, D -0.0315, G -0.183, F -0.016, V -0.0677, S -0.0176, R -0.0994, T -0.112
E90: F -0.0713, I -0.0086, Q -0.0474, K 0.00313, M 0.0018, P -0.164, H -0.0294, N -0.0107, A 0.00572, C -0.00217, L 0.0056, S -0.0214, R 0.0046, D 0.000961, V 0.0003, G 0.00689, W -0.0857, T -0.0178, Y -0.107
A89: S 0.00694, R -0.0424, Y -0.00929, P -0.00485, N -0.00625, W -0.0308, T -0.00868, V 0.00684, Q -0.0663
R97: V 0.00683, L -0.0375, W -0.346, H -0.211, Y -0.0378, P -1.03, F -0.0465, E 0.00633, N 0.00607, G -0.0171, C 0.00684, A 0.00655, D 0.00527, T -0.00706, I 0.00215, K -0.0457, S -0.0417, M -0.0359, Q 0.00692
D96: P -0.177, N -0.00561, C -0.291, I -0.341, H -0.132, A -0.536, Q -0.0411, L -0.43, K -0.758, E -0.143, V -0.431, M -0.441, G -0.0459, F -0.446, Y -0.308, R -0.506, T -1.12, S -0.15, W -0.378
